Experimental data from article doi:10.1101/2023.02.05.527200 (bioRxiv, 2023).
Read-outs that look alike come from different tables or passages of the source.

Experiments:
V5 peptide [1] = molecular target: T1, V5 peptide (Parainfluenza virus 5 (strain W3) …); assay: ITC
T1 chain: GKPIPNPLLGLDST

V5 peptide [2] = molecular target: T1, V5 peptide; assay: ITC

Kd (V5 peptide [1]): ~218 nM | Kd (V5 peptide [2]): 574 nM
B1: NbV5 (VHH)
VHH: EVQLQASGGGFVQPGGSLRLSCAASGTTSFGDTMGWFRQAPGKEREFVSAISRQGDKHYYADSVKGRFTISRDNSKNTVYLQMNSLRAEDTATYYCAEWMNTRREFITPYWGQGTQVTVSS
